The values below come from patent US20240002499A1, “ANTI-CLIC1 PROTEIN ANTIBODIES AND THE DIAGNOSTIC AND THERAPEUTIC USES THEREOF” (Universita' Degli Studi di Milano, priority 2020, published 2024).

In data set [1] the target is T1, tmCLIC1 ion channel (Mus musculus, UniProt Q9Z1Q5).
T1 construct: endogenous in cells; host or cells: BV-2 mouse microglial cell line
Kind of data set: Whole-cell patch clamp on BV2 microglial cells with β-amyloid. The data set is classed as cell-based, mice. As to conditions: whole-cell configuration, perfusion of antibody after β-amyloid. From the text: (§1) The microglial cells used (BV-2) originated from an immortalised cell line deriving from C57BL/6 mice and commonly marketed. The culture medium used was RPMI (Thermo Fisher Scientific) with the addition of 10% FBS (Euroclone) and 1% Pen/Strep ([…], Thermo Fisher Scientific).
The microelectrodes were obtained from borosilicate capillaries with a diameter of 1.5 mm. Micropipettes were produced with a P-97 Brown-Flaming puller (Sutter Instruments, Novato, CA), with which the capillaries were forged to a tip diameter of 1-1.5 μm and electrical resistance of 5-8 MΩ.
The perforated patch clamp configuration was used for the whole-cell experiments, employing the antibiotic gramicidin (final concentration in pipette 5 μg/ml) which forms pores in the membrane that are only permeable to monovalent cations; in this way, the cytoplasmic concentration of the chloride ion remains unchanged throughout the experiment. The ion currents were digitised at 5 kHz and filtered at 1 kHz. Clampex 9.2 was used as the data acquisition and analysis programme.
In the time-course experiments, the potential was set on the basis of the resting potential of each cell, and a voltage step of +60 mV was applied every 5 seconds. The current measured is that observed at the end of the voltage step lasting 800 ms. When the amplitude of the current reaches a constant value, the antibody and IAA94 are added in sequence. […]
For orientation: Patch clamp records ionic current or voltage across a cell membrane.

The test system of data set [2] is microglial cells. Kind of data set: Growth curves of microglial cells stimulated with β-amyloid. In kind it is cell-based, mice. As to conditions: 1 μM β-amyloid, 4-day observation period. The protocol:
as §1
(§2) The cells were seeded in 24-well plates (20,000 cells/well) and counted after 24, 48, 72 and 96 hours to construct the growth curve. The cells were collected and centrifuged, and the resuspended pellet was diluted 1:1 with Trypan Blue. An automated counter (Countess II, Thermo Fisher Scientific) was used to count the cells. All data were normalized to their controls.

For data set [3], the system named is human glioblastoma cells. Kind of data set: Growth curves of human glioblastoma cells in primary culture. The data set is classed as cell-based.
From the text: The primary glioblastoma cell lines, already tested for stem cell properties and carcinogenicity, were kindly supplied by Professor T. Florio's laboratory at Genoa University (Genoa, Italy). The cells were obtained from a surgical biopsy performed in the Neurosurgery Department of IRCCS-AOU San Martino IST (Genoa, Italy), from patients who had not received any treatment before the operation. The samples were histologically classified as GB grade IV (according to the WHO classification), and were used after obtaining the patients' informed consent and the approval of the Institutional Ethics Committee (IEC). The cells were cultured in stem cell-permissive medium consisting of Dulbecco's Modified Eagle's Medium (DMEM) and F12-GlutaMAX at the ratio of 1:1, supplemented with 1×B27 (Thermo Fisher Scientific), […] of fibroblast growth factor (FGF, Miltenyi Biotec), […] of human epidermal growth factor (EGF, Miltenyi Biotec) and 1% penicillin/streptomycin (Pen/Strep, […]) (Thermo Fisher Scientific).
as §2

The target in data set [4] is T2, peptide […] (amino acids 3-24 of the CLIC1 protein) (Homo sapiens, UniProt O00299).
T2 construct: conducted against the peptide […]; (amino acids 3-24 of the CLIC1 protein); host or cells: synthetic peptide microarray (PEPperMAP)
Kind of data set: PEPperMAP epitope mapping on CLIC1 peptide microarrays. In kind it is binding. Here is the method:
PEPperMAP epitope Mapping® of the tmCLIC1omab antibody was conducted against the peptide […] (amino acids 3-24 of the CLIC1 protein) translated to linear peptides consisting of 5, 10 and 15 amino acids with peptide-peptide overlaps of 4, 9 and 14 amino acids for high-resolution epitope data. The resulting CLIC1 peptide microarrays were incubated with the antibody samples at concentrations of 1 μg/ml, 10 μg/ml, 100 μg/ml and 250 μg/ml in incubation buffer, followed by staining with secondary and control antibodies and reading with a LI-COR Odyssey Imaging System. The intensity of the points and peptide annotation were quantified with the PepSlide® Analyzer.

The target in data set [5] is T3, tmCLIC1 (Homo sapiens, UniProt O00299).
T3 construct: monocytes isolated from the peripheral blood of patients with a diagnosis of Alzheimer's disease and controls; endogenous in cells; host or cells: human peripheral blood monocytes (Alzheimer's disease patients and healthy controls)
Kind of data set: Immunofluorescence on monocytes isolated from peripheral blood. In kind it is cell-based. As to conditions: monocytes of Alzheimer's disease patients and controls, fluorescent secondary antibody. Here is the method: For each individual, 8 ml of peripheral blood was collected in BD Vacutainer® CPT™ test tubes with sodium citrate, gently mixed by inversion and centrifuged at room temperature for 20 min. at 1600 rpm to separate three distinct phases: a bottom layer containing red blood cells, an intermediate layer containing mononuclear cells, and a top layer containing plasma. The layer of mononuclear cells was collected together with part of the plasma and transferred to a centrifuge tube. PBS was added until a final volume of […] was reached, and it was gently mixed by inversion and centrifuged for 10 min. at 300 rpm. The resulting pellet underwent two further washes in 5 ml of PBS, and was used for the subsequent experiments.
The pellet of mononuclear cells isolated from the blood was counted and divided into samples containing an equal number of cells (1×10^6 cells/sample). Each sample was resuspended in 90 μl of cold staining solution (0.5% BSA, 2 mM EDTA in PBS) and, after the addition of 10 μl of FcR blocker (Miltenyi Biotec), was incubated in ice for 15 min. 10 μl of primary antibody diluted in staining solution was then added, and the sample was incubated for 1 h in ice. At the end of the incubation period, each sample was washed with 1 ml of cold staining solution and centrifuged at 350 rpm for 5 min. […]

B1: tmCLIC1omab: IgG1 class antibody containing the heavy chain variable region SEQ ID NO:13 and the light chain variable region SEQ ID NO:14 (antibody, listed as Mus musculus, V domains shown)
VH: EVMLVESGGGLVKPGGSLKLSCAASGFAFSNYAMSWIRQIPEKRLEWVATISTGGSSTFYPDSVKGRFTISRDNAKNTLYLQMSSLRSEDTAMYYCTRHAYEAWFAYWGQGTLVTVSA
VL: QIVLTQSPALMSASPGEKVTMTCSASSSVSYMYWYQQRPRSSPKPWIYLTSTLASGVPTRFSGSGSGTSYSLTISSMEAEDAATYYCQQWNSHPLTFGSGTKLEIK
Turning to B1, in data set [1], the “reduction of membrane current increased by β-amyloid peptide” value is given as “about fourfold”. The “cell proliferation in the presence of β-amyloid” value in data set [2] is listed as “completely inhibited”. Further, the “growth rate compared with Clic1−/− knockout cells” value in data set [3] (glioblastoma cells, FIG. 9) is “the same growth rate”. Also, in data set [3] (primary culture, 4-day period), the “cell growth (growth curve)” value is “inhibited cell growth”. In addition, in data set [4] (linear peptide microarray), the “binding to the QVELFV sequence” value is “with lower affinity, binds the QVELFV sequence (SEQ ID NO:27) well”. Moreover, the “epitope sequence for which the antibody exhibits specificity” value in data set [4] (linear peptides of 5, 10 and 15 amino acids, antibody 1-250 μg/ml) is listed as “QVELF”. Also, the “specificity of staining on monocytes” value in data set [5] was “specificity of the antibody for the membrane protein”.
